This passage reports Kd results from publication PMC10786891, “Massively parallel profiling of RNA-targeting CRISPR-Cas13d”.

T1: EsCas13d, nuclease-dead (Eubacterium siraeum, UniProt B0MS50, R295A;H300A;R849A;H854A)
T1 sequence: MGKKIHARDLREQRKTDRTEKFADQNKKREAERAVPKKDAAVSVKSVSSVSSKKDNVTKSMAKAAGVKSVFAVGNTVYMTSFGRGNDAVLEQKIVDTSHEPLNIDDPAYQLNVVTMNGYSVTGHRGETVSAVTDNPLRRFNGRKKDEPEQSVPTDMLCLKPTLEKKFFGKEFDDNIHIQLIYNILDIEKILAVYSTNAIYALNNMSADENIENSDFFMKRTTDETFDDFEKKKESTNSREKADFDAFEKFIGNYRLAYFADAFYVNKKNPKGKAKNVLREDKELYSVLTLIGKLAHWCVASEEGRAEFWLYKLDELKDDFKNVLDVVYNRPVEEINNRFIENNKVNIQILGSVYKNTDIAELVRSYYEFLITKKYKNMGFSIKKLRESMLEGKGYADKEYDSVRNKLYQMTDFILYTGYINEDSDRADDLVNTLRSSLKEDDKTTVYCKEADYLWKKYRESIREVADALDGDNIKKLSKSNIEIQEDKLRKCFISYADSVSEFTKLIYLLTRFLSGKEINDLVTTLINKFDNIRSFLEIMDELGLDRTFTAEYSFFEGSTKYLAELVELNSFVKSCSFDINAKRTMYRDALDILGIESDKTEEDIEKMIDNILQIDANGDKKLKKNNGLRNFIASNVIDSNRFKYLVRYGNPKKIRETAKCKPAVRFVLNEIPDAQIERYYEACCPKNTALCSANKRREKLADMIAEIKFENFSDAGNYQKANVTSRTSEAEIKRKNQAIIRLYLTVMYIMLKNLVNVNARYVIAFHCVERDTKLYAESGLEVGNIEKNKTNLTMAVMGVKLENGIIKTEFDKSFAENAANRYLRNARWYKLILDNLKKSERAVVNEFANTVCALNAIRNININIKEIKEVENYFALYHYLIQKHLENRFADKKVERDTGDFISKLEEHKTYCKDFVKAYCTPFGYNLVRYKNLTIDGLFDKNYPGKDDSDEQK

B1: target 1 G17C,C22U (mixed)
RNA 1: CACCCGUGCAAAAAUGCAGGGGUCUAAAACUGAGCGGAUAACCUCUCUAUGG
RNA 2: GGGAAUGGAUCCACAUCUACGAAUUCGUAUCAUACAGAGGUUAUCCGCUCACCGAGAUCGGAAGAGCACACGU
B2: target 1 insC 3' of 13,insC 3' of 13 (mixed)
RNA 1: B1 RNA 1
RNA 2: GGGAAUGGAUCCACAUCUACGAAUUCGUACCAUAGAGAGCCGUUAUCCGCUCACCGAGAUCGGAAGAGCACACGU
B3: target 1 insU 3' of 12,insG 3' of 9 (mixed)
RNA 1: B1 RNA 1
RNA 2: B2 RNA 2 with C40G, C41U, G42U, U44A, A45G
B4: target 1 G17A,U19A (mixed)
RNA 1: B1 RNA 1
RNA 2: B1 RNA 2 with U30C, U33A, C35A
B5: target 1 A1C,C7A (mixed)
RNA 1: B1 RNA 1
RNA 2: B1 RNA 2 with U30C, C35G, C45A, A51C
B6: target 1 insU 3' of 9,insG 3' of 2 (mixed)
RNA 1: B1 RNA 1
RNA 2: GGGAAUGGAUCCACAUCUACGAAUUCGUACCAUAGAGAGGUUAUUCCGCUCGACCGAGAUCGGAAGAGCACACGU
B7: target 1 A1U,C7A (mixed)
RNA 1: B1 RNA 1
RNA 2: B1 RNA 2 with U30C, C35G, C45A, A51U
B8: target 1 insA 3' of 13,insG 3' of 9 (mixed)
RNA 1: B1 RNA 1
RNA 2: B2 RNA 2 with C40A, C41G, G42U, U44A, A45G
B9: target 1 G5C,U8A (mixed)
RNA 1: B1 RNA 1
RNA 2: B1 RNA 2 with U30C, C35G, U44A, G47C
B10: target 1 insG 3' of 19,insG 3' of 4 (mixed)
RNA 1: B1 RNA 1
RNA 2: GGGAAUGGAUCCACAUCUACGAAUUCGUACCAUGAGAGAGGUUAUCCGCGUCACCGAGAUCGGAAGAGCACACGU
B11: target 1 G5A,A14C (mixed)
RNA 1: B1 RNA 1
RNA 2: B1 RNA 2 with U30C, C35G, A38C, G47A
B12: target 1 C7A,G15U (mixed)
RNA 1: B1 RNA 1
RNA 2: B1 RNA 2 with U30C, C35G, G37U, C45A
B13: target 1 insA 3' of 8,insC 3' of 8 (mixed)
RNA 1: B1 RNA 1
RNA 2: B2 RNA 2 with C40G, C41U, G42U, U43A, U46C
B14: target 1 insG 3' of 16,insC 3' of 8 (mixed)
RNA 1: B1 RNA 1
RNA 2: B10 RNA 2 with G34A, A35G, G36A, A37G, G48C, C49G, G50C
B15: target 1 G17A,U19C (mixed)
RNA 1: B1 RNA 1
RNA 2: B1 RNA 2 with U30C, U33C, C35A
B16: target 1 insU 3' of 22,insU 3' of 21 (mixed)
RNA 1: B1 RNA 1
RNA 2: B2 RNA 2 with C31U, A32C, G35U, C40A, C41G
B17: target 1 C4A,A16C (mixed)
RNA 1: B1 RNA 1
RNA 2: B1 RNA 2 with U30C, C35G, A36C, C48A
B18: target 1 A1U,A20U (mixed)
RNA 1: B1 RNA 1
RNA 2: B1 RNA 2 with U30C, A32U, C35G, A51U
B19: target 1 insC 3' of 9,insA 3' of 8 (mixed)
RNA 1: B1 RNA 1
RNA 2: B2 RNA 2 with C40G, C41U, G42U, U43A, U44C, A45U, U46A
B20: target 1 U8C,A9C (mixed)
RNA 1: B1 RNA 1
RNA 2: B1 RNA 2 with U30C, C35G, A43C, U44C
B21: target 1 insA 3' of 8,insA 3' of 7 (mixed)
RNA 1: B1 RNA 1
RNA 2: B2 RNA 2 with C40G, C41U, G42U, U43A, U46C, C47A
B22: target 1 U11G,G12A (mixed)
RNA 1: B1 RNA 1
RNA 2: B1 RNA 2 with U30C, C35G, G40A, U41G
B23: target 1 insA 3' of 15,insG 3' of 10 (mixed)
RNA 1: B1 RNA 1
RNA 2: B2 RNA 2 with G39A, C40G, C41G, G42U, U44G
B24: target 1 insU 3' of 14,insG 3' of 1 (mixed)
RNA 1: B1 RNA 1
RNA 2: B6 RNA 2 with G39U, U41G, A43U, U44A, G52A, A53G
B25: target 1 A1G,A20U (mixed)
RNA 1: B1 RNA 1
RNA 2: B1 RNA 2 with U30C, A32U, C35G, A51G
B26: target 1 A20U (mixed)
RNA 1: B1 RNA 1
RNA 2: B1 RNA 2 with U30C, A32U, C35G
B27: target 1 insC 3' of 5,insU 3' of 5 (mixed)
RNA 1: B1 RNA 1
RNA 2: B6 RNA 2 with U45C, C47G, G48C, C49U, U50C, C51U, G52C
B28: target 1 G5A,A14G (mixed)
RNA 1: B1 RNA 1
RNA 2: B1 RNA 2 with U30C, C35G, A38G, G47A
B29: target 1 insC 3' of 17 (mixed)
RNA 1: B1 RNA 1
RNA 2: GGGAAUGGAUCCACAUCUACGAAUUCGUACCAUAGCAGAGGUUAUCCGCUCACCGAGAUCGGAAGAGCACACGU
B30: target 1 C7A (mixed)
RNA 1: B1 RNA 1
RNA 2: B1 RNA 2 with U30C, C35G, C45A
B31: target 1 insC 3' of 22,insA 3' of 8 (mixed)
RNA 1: B1 RNA 1
RNA 2: B10 RNA 2 with A32C, U33A, G34U, C46A, G48C, C49G, G50C
B32: target 1 insU 3' of 22,insC 3' of 8 (mixed)
RNA 1: B1 RNA 1
RNA 2: B10 RNA 2 with C31U, A32C, U33A, G34U, G48C, C49G, G50C

What is called Kd is the equilibrium constant for the complex coming apart. Higher therefore signals weaker binding.

Numbering of substitutions follows the chain as printed. Names may count otherwise.

In this series the target is T1, EsCas13d, nuclease-dead. Kind of series: crRNA (strand 1, pre-loaded); Mg2+; 40 mM Tris-HCl pH 7.5, 150 mM NaCl, 6 mM MgCl2, 1 mM DTT, 0.1% Tween-20, 0.2 mg/ml BSA; 25 C; 10 min per concentration, then washed. Particulars: tags: His6-TwinStrep-SUMO cleaved; N-terminal SNAP kept (SNAP-Surface 488); label: 3' end held by stalled T7 RNA polymerase.
Regarding B1, the Kd is 62 ± 11 nM.

B2 yielded a Kd of 35 ± 5 nM.

As to B3, the Kd was determined as 13.3 ± 0.8 nM.

On to B4, for which the affinity, expressed as Kd, was 54 ± 8 nM. Compared with the last molecule, the Kd is about 4.1-fold higher.

Turning to B5, the Kd worked out at 9.8 ± 0.6 nM.

Take B6: binding was put at a Kd of 24.6 ± 3.2 nM.

On to B7, for which the affinity, expressed as Kd, was 9.4 ± 1 nM.

The molecule B8 returned a Kd of 6.9 ± 0.5 nM.

For B9, the Kd stood at 38 ± 5 nM.

The molecule B10 had a Kd of 34.6 ± 1.9 nM.

In the case of B11, the Kd was 81 ± 34 nM.

For the molecule B12, binding was characterised by a dissociation constant (Kd) of 19.6 ± 2.1 nM.

As for B13, binding was characterised by a dissociation constant (Kd) of 13.2 ± 0.6 nM.

For the molecule B14, binding was put at a Kd of 24.3 ± 2 nM. Against the preceding molecule, the Kd is about 1.8-fold higher.

For B15, the Kd came out at 46 ± 6 nM. Compared with the last molecule, the Kd is about 1.9-fold higher.

With B16, binding was characterised by a dissociation constant (Kd) of 85 ± 28 nM. Compared with the last molecule, the Kd is about 1.8-fold higher.

B17 had a Kd of 49 ± 11 nM.

B18: binding was characterised by a dissociation constant (Kd) of 35.1 ± 1.9 nM.

Molecule B19 showed a Kd of 8.8 ± 0.5 nM.

B20 yielded a Kd of 30.5 ± 2.7 nM.

As to B21, the affinity, expressed as Kd, was 11.3 ± 0.5 nM.

In the case of B22, the affinity, expressed as Kd, was 4.27 ± 0.21 nM.

Turning to B23, the affinity, expressed as Kd, was 13.6 ± 1.8 nM.

On to B24, for which the dissociation constant Kd came out at 45 ± 4 nM. Against the preceding molecule, the Kd is about 3.3-fold higher.

The molecule B25 had a Kd of 37.8 ± 2.3 nM. The Kd values of the last two molecules are within 1.5-fold of each other.

The molecule B26 came in with a Kd of 50 ± 5 nM.

The molecule B27 showed a Kd of 9.3 ± 0.5 nM.

B28: the Kd stood at 42 ± 4 nM.

The molecule B29 showed a Kd of 50 ± 11 nM.

Consider B30, for which the Kd was 7.8 ± 0.4 nM. Compared with the last molecule, the Kd is about 6.4-fold lower.

B31 came in with a Kd of 31.4 ± 2.8 nM.

B32: the Kd is about 100 nM.
